Experimental data from the Immune Epitope Database (IEDB).

What was measured:
[1] = biological target: HLA-A*02:01; experiment: IEDB peptide-MHC binding, purified MHC/competitive/fluorescence; ≥ and ≤ were set here for values at or beyond the usual limits of such assays; details: source organism: Zaire ebolavirus
[2] = biological target: HLA-A*03:01; experiment: as above; details: source organism: Zaire ebolavirus
[3] = biological target: HLA-A*24:02; experiment: as above; details: source organism: Zaire ebolavirus
[4] = biological target: HLA-A*11:01; experiment: as above; details: source organism: Zaire ebolavirus
[5] = biological target: HLA-B*46:01; experiment: IEDB peptide-MHC binding, purified MHC/competitive/fluorescence; filed as Kd, often an IC50 or EC50 that approximates it; ≥ and ≤ were set here for values at or beyond the usual limits of such assays
[6] = biological target: HLA-A*26:01; experiment: as above
[7] = biological target: HLA-B*15:01; experiment: as above
[8] = biological target: HLA-A*02:01; experiment: as above
[9] = biological target: HLA-B*27:03; experiment: as above
[10] = biological target: HLA-B*39:01; experiment: as above
[11] = biological target: HLA-A*03:01; experiment: as above; details: source organism: Giardia intestinalis ATCC 50581
[12] = biological target: HLA-B*57:01; experiment: as above
[13] = biological target: HLA-A*24:03; experiment: as above
[14] = biological target: HLA-B*18:01; experiment: as above
[15] = biological target: HLA-B*51:01; experiment: as above
[16] = biological target: HLA-A*02:12; experiment: as above; details: source organism: Giardia intestinalis ATCC 50581
[17] = biological target: HLA-A*02:11; experiment: IEDB peptide-MHC binding, purified MHC/direct/fluorescence; filed as Kd, often an IC50 or EC50 that approximates it; ≥ and ≤ were set here for values at or beyond the usual limits of such assays; details: source organism: Zaire ebolavirus
[18] = biological target: HLA-A*02:19; experiment: as above; details: source organism: Zaire ebolavirus
[19] = biological target: HLA-A*68:02; experiment: as above; details: source organism: Zaire ebolavirus
[20] = biological target: HLA-A*29:02; experiment: as above; details: source organism: Zaire ebolavirus
[21] = biological target: HLA-A*03:01; experiment: as above
[22] = biological target: HLA-A*02:03; experiment: as above; details: source organism: Zaire ebolavirus
[23] = biological target: HLA-A*24:03; experiment: as above
[24] = biological target: HLA-A*02:16; experiment: as above; details: source organism: Zaire ebolavirus
[25] = biological target: HLA-A*02:12; experiment: as above; details: source organism: Zaire ebolavirus
[26] = biological target: HLA-B*15:17; experiment: IEDB peptide-MHC binding, purified MHC/competitive/fluorescence; filed as Kd, often an IC50 or EC50 that approximates it; ≥ and ≤ were set here for values at or beyond the usual limits of such assays; details: source organism: Zaire ebolavirus
[27] = biological target: HLA-A*31:01; experiment: as above; details: source organism: Zaire ebolavirus
[28] = biological target: HLA-A*69:01; experiment: as above; details: source organism: Zaire ebolavirus
[29] = biological target: HLA-A*26:01; experiment: IEDB peptide-MHC binding, purified MHC/direct/fluorescence; filed as Kd, often an IC50 or EC50 that approximates it; ≥ and ≤ were set here for values at or beyond the usual limits of such assays
[30] = biological target: HLA-B*07:02; experiment: IEDB peptide-MHC binding, purified MHC/competitive/fluorescence; ≥ and ≤ were set here for values at or beyond the usual limits of such assays; details: source organism: Zaire ebolavirus
[31] = biological target: HLA-B*15:01; experiment: as above; details: source organism: Zaire ebolavirus
[32] = biological target: HLA-B*08:01; experiment: as above; details: source organism: Zaire ebolavirus
[33] = biological target: HLA-B*58:01; experiment: IEDB peptide-MHC binding, purified MHC/direct/fluorescence; filed as Kd, often an IC50 or EC50 that approximates it; ≥ and ≤ were set here for values at or beyond the usual limits of such assays; details: source organism: Brucella abortus
[34] = biological target: HLA-B*07:02; experiment: as above
[35] = biological target: HLA-B*15:01; experiment: as above; details: source organism: Brucella melitensis
[36] = biological target: HLA-B*40:01; experiment: as above; details: source organism: Brucella abortus
[37] = biological target: HLA-A*02:01; experiment: as above; details: source organism: Brucella abortus
[38] = biological target: HLA-A*31:01; experiment: as above; details: source organism: Brucella abortus
[39] = biological target: HLA-B*35:01; experiment: as above; details: source organism: Brucella melitensis
[40] = biological target: HLA-A*69:01; experiment: as above; details: source organism: Brucella abortus
[41] = biological target: HLA-B*44:02; experiment: as above; details: source organism: Brucella abortus
[42] = biological target: HLA-B*27:05; experiment: as above; details: source organism: Brucella abortus
[43] = biological target: HLA-A*11:01; experiment: as above; details: source organism: Brucella abortus
[44] = biological target: HLA-B*08:01; experiment: as above
[45] = source organism: Giardia intestinalis ATCC 50581
[46] = source organism: Zaire ebolavirus
[47] = source organism: Brucella abortus
[48] = source organism: Ebola virus - Eckron (Zaire, 1976)

| Sequence | IC50 [2] | IC50 [3] | Kd [17] | Kd [18] | Kd [19] | Kd [22] | Kd [23, 46] | Kd [24] | Kd [25] | Kd [5, 46] | Kd [8, 46] | Kd [9, 46] | Kd [28] | Kd [10, 46] | Kd [12, 46] | Kd [14, 46] | Kd [15, 46] | further results |
| --- | --- | --- | --- | --- | --- | --- | --- | --- | --- | --- | --- | --- | --- | --- | --- | --- | --- | --- |
| FLLMLCLHH | ≥ 129 µM |  |  |  |  |  |  |  |  |  |  |  |  |  |  |  |  | IC50 [1]: 12.2 µM |
| FYWPVMNHK | 4.71 µM | 9.75 µM |  |  |  |  |  |  |  |  |  |  |  |  |  |  |  | IC50 [4]: 4.52 µM |
| GLYLYRFHV |  |  |  |  |  |  |  |  |  |  |  |  |  |  |  |  |  | Kd [5, 45]: ≥ 20 µM; Kd [6, 45]: ≥ 20 µM; Kd [7, 45]: ≥ 20 µM; Kd [8, 45]: 0.0014 µM; Kd [9, 45]: ≥ 20 µM; Kd [10, 45]: ≥ 20 µM; Kd [11]: ≥ 20 µM; Kd [12, 45]: ≥ 20 µM; Kd [13, 45]: ≥ 20 µM; Kd [14, 45]: ≥ 20 µM; Kd [15, 45]: ≥ 20 µM; Kd [16]: 0.0055 µM |
| RVPTVFHKK |  |  | ≥ 20 µM | ≥ 20 µM | ≥ 20 µM | ≥ 20 µM | ≥ 20 µM | ≥ 20 µM | ≥ 20 µM | ≥ 20 µM | ≥ 20 µM | ≥ 20 µM | ≥ 20 µM | ≥ 20 µM | ≥ 20 µM | ≥ 20 µM | ≥ 20 µM | Kd [20]: ≥ 20 µM; Kd ([21]; source organism: Sudan ebolavirus - Uganda (2000)): 0.241 µM; Kd [6, 46]: ≥ 20 µM; Kd [7, 46]: ≥ 20 µM; Kd [26]: ≥ 20 µM; Kd [27]: 0.0268 µM |
| TVIYRGTTF |  | 1.26 µM | ≥ 20 µM | ≥ 20 µM | ≥ 20 µM | ≥ 20 µM | ≥ 20 µM | ≥ 20 µM | ≥ 20 µM | ≥ 20 µM | ≥ 20 µM | ≥ 20 µM | ≥ 20 µM | ≥ 20 µM | ≥ 20 µM | ≥ 20 µM | ≥ 20 µM | Kd [29, 46]: 0.838 µM; Kd [20]: ≥ 20 µM; Kd [21, 46]: ≥ 20 µM; IC50 [30]: 14.3 µM; IC50 [31]: 4.71 µM; IC50 [32]: 45.4 µM; Kd [7, 46]: 0.0533 µM |
| GYSFSIPGY |  |  |  |  |  |  |  |  |  |  |  |  |  |  |  |  |  | Kd [33]: ≥ 20 µM; Kd [29, 47]: ≥ 20 µM; Kd [34, 47]: ≥ 20 µM; Kd [35]: 0.548 µM; Kd [36]: ≥ 20 µM; Kd [37]: ≥ 20 µM; Kd [38]: ≥ 20 µM; Kd [39]: 0.468 µM; Kd [40]: ≥ 20 µM; Kd [41]: ≥ 20 µM; Kd [42]: ≥ 20 µM; Kd [21, 47]: ≥ 20 µM; Kd [43]: ≥ 20 µM; Kd ([23]; source organism: Brucella melitensis): 1.07 µM; Kd [44, 47]: ≥ 20 µM |
| LYIEFTDNM |  |  |  |  |  |  |  |  |  |  |  |  |  |  |  |  |  | Kd ([13]; source organism: Escherichia coli 536): ≤ 0.001 µM |
| VVRVRRELL |  |  | ≥ 20 µM | ≥ 20 µM | ≥ 20 µM | ≥ 20 µM | ≥ 20 µM | ≥ 20 µM | ≥ 20 µM | ≥ 20 µM | ≥ 20 µM | ≥ 20 µM | ≥ 20 µM | ≥ 20 µM | ≥ 20 µM | ≥ 20 µM | ≥ 20 µM | Kd [34, 48]: 8 µM; Kd [21, 46]: ≥ 20 µM; Kd [44, 48]: 6 µM; Kd [6, 46]: ≥ 20 µM |
| VYRDHSEKK | 25.3 µM | 29.2 µM |  |  |  |  |  |  |  |  |  |  |  |  |  |  |  | IC50 [4]: 33.2 µM |
